Values quoted from earlier work, collected in publication PMC4776139, “Extended string-like binding of the phosphorylated HP1α N-terminal tail to the lysine 9-methylated histone H3 tail” (Scientific Reports, 2016).

Tested on: H3K9me
Conditions: effect of N-terminal tail phosphorylation
Source text: In mice there are three HP1 isoforms, HP1α, HP1β and HP1γ with highly conserved CDs that are thought to share a similar structural feature to interact with H3K9me. By contrast, the CDs of these isoforms are connected to a less-conserved N-terminal tail, which is hypothesized to contribute to their isoform-specific function. In HP1α, in particular, there are four successive serine residues in the N-terminal tail that are constitutively phosphorylated in vivo[13]. […] Howeve ...

B1: HP1α: mouse heterochromatin protein 1 isoform; chromodomain with N-terminal tail (protein, UniProt Q61686 1-191, looked up)
Chromobox protein homolog 5: MGKKTKRTADSSSSEDEEEYVVEKVLDRRMVKGQVEYLLKWKGFSEEHNTWEPEKNLDCPELISEFMKKYKKMKEGENNKPREKSEGNKRKSSFSNSADDIKSKKKREQSNDIARGFERGLEPEKIIGATDSCGDLMFLMKWKDTDEADLVLAKEANVKCPQIVIAFYEERLTWHAYPEDAENKEKESAKS
**Q.** For B1, which “affinity for H3K9me, in words” value is on record?
**A.** its affinity becomes much stronger when the N-terminal tail is phosphorylated
